Where a chain is given by its changes, count along the chain named.
B1: XGv286 (antibody, V domains shown)
VH: QVQLVQSGAEVKKPGASVKVSCKASGYTFSSYYIHWVRQAPGQGPEWMAIINPGDGGASYAQKFQGRVTLTRDTSTSTLYMELSSLRSEDTAVYYCARAEGSSWLGWFDPWGQGTLVTVSS
VL: QSVLTQPPSASGTPGQRVTISCSGSSSNIGSNYVYWYQQLPGTAPKLLIYRNNQRPSGVPDRFSGSRSGTSASLAISGLRSEDEADYYCAAWDDGLSGSGWVFGGGTKLT
B2: XGv287 (antibody, V domains shown)
VH: QVQLVQSGAEVKKPGASVKVSCKTSGYTFTTYYMHWVRQAPGQGLEWMGIINPSDGSTNYAQKFQDRVTLTKDTSTSTFYMELSSLTSEDTAKYYCARAEGSSWLGWFDPWGQGTLVTVSS
VL: QSVLTQPPSASGTPGQRVTISCSGSNSNIGNHFVYWYQQLPGKAPKLLIYRNNQRPSGVPDRFSGSKSGTSASLAISGLRSEDEADYYCASWNDGLSASGWVFGGGTKLTV
B3: XGv288 (antibody, V domains shown)
VH: B1 VH with S30T, S31N, P45L, G54S, D55G, Q62H, L70M, S84I, E89D, V117I
VL: B2 VL with N26S, N31S, H32N, F33Y, K43T, N53A, S91A, N93D, A98G
B4: XGv290 (antibody, V domains shown)
VH: QVQLVQSGAEVKKPGASVKVSCKASGYTFKNYHMHWVRQAPGQGLEWMGIINPSGGGSSYAQKFQGRVTMTGDTSTSTVYMELSSLRSEDTAVYYCARAEGSSWLGWFDPWGQGTLVTVSS
VL: B1 VL with L47V, R67K, D86E, V102L
B5: XGv291 (antibody, V domains shown)
VH: QVQLVQSGAEVKKPGASVEISCKASGYSFTKYYVHWVRQAPGQGLEWMGIVNPNGGASYAQKFQGRVTMTSDTSTTTFYMEVSGLRSDDTAVYYCARAEGSSWLGWFDPWGQGTLVTVSS
VL: B2 VL with N26T, N31S, H32K, F33D, K43T, V59A, G65A, S91V, N93D, V102L
B6: XGv293 (antibody, V domains shown)
VH: QVQLVQSGAEVKKPGASVKVSCKASGYTFTSYFLHWVRQAPGQGLEWLGIIDPSGGASYAQKFQGRVTMTSDTSTSTVYMDLGSLRSEDTAVYYCARAEGTSWLGWFDPWGQGSLVTVSS
VL: QSVLTQPPSASGTPGQRVTISCSGSSSNIGTNYVYWYQQLPGTAPKLLIYRNYQRPSGVPDRFSGSKSGTSASLAISGLRSEDEAEYYCAAWDNGLSGSGWVFGGGTKLTVL
B7: XGv294 (antibody, V domains shown)
VH: B4 VH with K30T, N31R, Y32H, H33Y, M34I, S58A, G72R, L83V, S88Y, S102G
VL: B1 VL with S25G, S31N, R51G, R67K, Y88H
B8: XGv295 (antibody, V domains shown)
VH: QVQLVQSGAEVKKPGASVKVSCKASGYIFTNYYIHWVRQAPGQGLEWMAIFNPSAATASYAQKFQGRVTMTRDTSTTTVYMELRSLRFDDTAVYYCARAEGTSWLGWFDPWGQGTLVTVSS
VL: B6 VL with I20V, T31S, N32H, Y33D, R51K, Y53D, K67T, E86D, N94D

Target: SARS-CoV-2 wild-type spike (S) protein (SARS-CoV-2, WT (MN908947), UniProt P0DTC2)

Question: Does B1 bind?
Answer: binds

Question: Does B2 bind?
Answer: binds

Question: Does B3 bind?
Answer: binds

Question: Does B4 bind?
Answer: binds

Question: Does B5 bind?
Answer: binds

Question: Does B6 bind?
Answer: binds

Question: Does B7 bind?
Answer: binds

Question: Does B8 bind?
Answer: binds

Target: SARS-CoV-2 wild-type spike receptor-binding domain (SARS-CoV-2, WT (MN908947), UniProt P0DTC2)

Question: Does B1 bind?
Answer: binds

Question: Does B2 bind?
Answer: binds

Question: Does B3 bind?
Answer: binds

Question: Does B4 bind?
Answer: binds

Question: Does B5 bind?
Answer: binds

Question: Does B6 bind?
Answer: binds

Question: Does B7 bind?
Answer: binds

Question: Does B8 bind?
Answer: binds
